Target: PCBP2 (poly(C)-binding protein 2, hnRNP E2) (UniProt Q15366)
Test: EMSA
Details: EMSA: 25 mM NaH2PO4 pH 8.0, 50 mM NaCl, 25 mM KCl, 2.5 mM MgCl2, 10 mM imidazole, 0.5 mM DTT, 0.5 mM PMSF, 7% glycerol, 0.5 U/uL RNasin, 75 ng/uL BSA …

PCBP2 (poly(C)-binding protein 2, hnRNP E2), sequence (Q15366 whole entry): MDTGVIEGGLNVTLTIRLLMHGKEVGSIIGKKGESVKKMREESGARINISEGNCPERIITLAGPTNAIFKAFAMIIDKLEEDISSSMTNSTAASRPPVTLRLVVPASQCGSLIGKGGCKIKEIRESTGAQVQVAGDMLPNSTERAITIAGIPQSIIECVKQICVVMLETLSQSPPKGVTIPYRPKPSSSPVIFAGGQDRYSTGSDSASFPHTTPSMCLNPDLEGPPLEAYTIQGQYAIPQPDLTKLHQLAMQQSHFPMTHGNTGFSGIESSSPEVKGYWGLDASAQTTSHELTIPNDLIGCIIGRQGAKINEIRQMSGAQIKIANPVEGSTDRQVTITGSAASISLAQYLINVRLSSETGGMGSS

“GGUCAUGGCGACUGUCCAGCUUUGUGCCAGGAGCCUCGCAGGGGUUGAUGGGAUUGGGGUUUUCCCCUCCCAUGUGCUCAAGACUGGCGCUAAAAGUUUUGAGCUUCUCAAAAGUCUAGAGCCACCGUCCAGGGAGCAGGUAGCUGCUGGGCUCCGGGGACACUUUGCGUUCGGGCUGGGAGCGUGCUUUCCACGACGGUGACACGCUUCCCUGGAUUGGCAGCCAGACUGCCUUCCGGGUCACUGCCAUGGAGGAGCCGCAGUCAGAUCCUAGCGUCGAGCCCCCUCUGAGUCAGGAAACAUUUUCAGACCUAUGGAAACUACUUCCUGAAAACAACGUUCUGUCCCCCUUGCCGUCCCAAGCAAUG [P0-Δ40p53 RNA]” was tested, and the Kd was 63 nM.
